Test results from paper PMC11286949, “Structural basis of tRNA recognition by the widespread OB fold”.

Assays:
Conditions in all cases: protein: recombinant; tags: His-MBP removed; tRNA fold
Arc1p dN S278A/M281A = target: T1, Arc1p dN S278A/M281A (Saccharomyces cerevisiae, UniProt P46672 132-376, S278A;M281A;del1-131); experiment: ITC; ITC (Arc1p): 25 mM Tris-HCl pH 7.4, 150 mM NaCl, 2 mM MgCl2, 25 °C. FP and competition FP: 25 mM Tris-HCl pH 7.5, 150 mM NaCl (Arc1p) or 50 mM NaCl (Trbp111), 2 mM MgCl2, room temperature
T1 sequence: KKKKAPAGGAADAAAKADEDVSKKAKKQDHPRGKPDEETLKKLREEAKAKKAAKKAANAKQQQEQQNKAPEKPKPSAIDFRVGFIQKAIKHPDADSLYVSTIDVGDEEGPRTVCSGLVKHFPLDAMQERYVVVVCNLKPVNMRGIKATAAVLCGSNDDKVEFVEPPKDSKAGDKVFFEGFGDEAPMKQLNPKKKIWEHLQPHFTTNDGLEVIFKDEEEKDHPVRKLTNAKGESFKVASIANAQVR

[1] = target: T2, Arc1p dN V271A/M273A/M281A (Saccharomyces cerevisiae, UniProt P46672 132-376, V271A;M273A;M281A;del1-131); experiment: as above
T2 sequence: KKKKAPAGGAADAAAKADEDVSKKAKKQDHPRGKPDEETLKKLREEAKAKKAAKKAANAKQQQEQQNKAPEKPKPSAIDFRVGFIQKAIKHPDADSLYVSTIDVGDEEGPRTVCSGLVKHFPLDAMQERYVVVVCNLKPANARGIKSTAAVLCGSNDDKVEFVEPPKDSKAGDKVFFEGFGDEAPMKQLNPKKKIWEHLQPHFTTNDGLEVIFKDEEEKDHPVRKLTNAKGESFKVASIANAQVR

Arc1p dN K269A = target: T3, Arc1p dN K269A (Saccharomyces cerevisiae, UniProt P46672 132-376, K269A;del1-131); experiment: as above
T3 sequence: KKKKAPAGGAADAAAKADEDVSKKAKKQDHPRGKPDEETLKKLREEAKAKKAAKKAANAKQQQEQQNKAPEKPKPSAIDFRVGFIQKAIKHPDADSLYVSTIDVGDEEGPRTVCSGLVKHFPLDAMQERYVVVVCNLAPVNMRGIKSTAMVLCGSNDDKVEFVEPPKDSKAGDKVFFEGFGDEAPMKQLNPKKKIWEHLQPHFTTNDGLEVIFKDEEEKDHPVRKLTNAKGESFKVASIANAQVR

Arc1p dN R274A = target: T4, Arc1p dN R274A (Saccharomyces cerevisiae, UniProt P46672 132-376, R274A;del1-131); experiment: as above
T4 sequence: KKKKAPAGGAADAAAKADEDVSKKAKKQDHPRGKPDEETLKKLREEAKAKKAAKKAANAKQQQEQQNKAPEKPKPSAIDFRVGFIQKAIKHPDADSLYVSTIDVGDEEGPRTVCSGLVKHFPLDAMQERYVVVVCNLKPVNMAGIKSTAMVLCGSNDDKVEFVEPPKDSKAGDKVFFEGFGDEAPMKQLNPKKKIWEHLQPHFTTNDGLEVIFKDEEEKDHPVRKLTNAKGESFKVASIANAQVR

Arc1p = target: T5, Arc1p (Saccharomyces cerevisiae, UniProt P46672 1-376); experiment: competition fluorescence polarization; ITC (Arc1p): 25 mM Tris-HCl pH 7.4, 150 mM NaCl, 2 mM MgCl2, 25 °C. FP and competition FP: 25 mM Tris-HCl pH 7.5, 150 mM NaCl (Arc1p) or 50 mM NaCl (Trbp111), 2 mM MgCl2, room temperature
T5 sequence: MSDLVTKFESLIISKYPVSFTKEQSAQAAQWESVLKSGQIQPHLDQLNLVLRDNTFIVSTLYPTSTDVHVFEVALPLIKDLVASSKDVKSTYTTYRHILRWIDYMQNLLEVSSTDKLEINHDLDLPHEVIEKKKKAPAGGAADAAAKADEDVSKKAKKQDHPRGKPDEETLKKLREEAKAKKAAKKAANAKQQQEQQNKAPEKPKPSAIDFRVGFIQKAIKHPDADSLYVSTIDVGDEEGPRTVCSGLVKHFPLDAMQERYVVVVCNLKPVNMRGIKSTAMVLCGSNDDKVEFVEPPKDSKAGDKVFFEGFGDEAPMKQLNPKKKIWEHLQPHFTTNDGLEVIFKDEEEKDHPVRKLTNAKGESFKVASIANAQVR

Arc1p dN = target: T6, Arc1p dN (Saccharomyces cerevisiae, UniProt P46672 132-376, del1-131); experiment: as above
T6 sequence: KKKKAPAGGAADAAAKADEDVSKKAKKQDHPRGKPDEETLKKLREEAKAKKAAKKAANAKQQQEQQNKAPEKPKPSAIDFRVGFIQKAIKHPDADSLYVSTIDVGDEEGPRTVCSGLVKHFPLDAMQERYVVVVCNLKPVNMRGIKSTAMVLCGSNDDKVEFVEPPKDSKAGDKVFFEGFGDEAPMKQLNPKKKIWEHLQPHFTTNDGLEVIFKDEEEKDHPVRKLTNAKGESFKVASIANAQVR

B1: tRNAIle WT (structured_RNA)
RNA: AGGCUUGUAGCUCAGGUGGUUAGAGCGCACCCCUGAUAAGGGUGAGGUCGGUGGUUCAAGUCCACUCAGGCCUACCA
With B1 the Kd (Arc1p dN S278A/M281A) was 1430 ± 379 nM, the Kd [1] was 544 ± 215 nM and the Kd (Arc1p dN K269A) was 1500 ± 55 nM. The Kd (Arc1p dN R274A) was 2980 ± 674 nM, the IC50 (Arc1p) was 948 ± 241 nM and the IC50 (Arc1p dN) was 363 ± 96.4 nM.
